The results in this text go back to US20200247894A1 (Regeneron, published 2020).

The chains are these.
B1: H4H12889P (antibody, human IgG4 S228P, kappa, V domains shown)
VH: EVQLVESGGGLVQPGGSLRLSCAASGFIFSSYEMHWVRQAPGKGLEWISYISSSGTTIYYADSVKGRFTISRDNAKNSLYLHMNSLRAEDTAVYYCTRARITGTFDVFDIWGQGTMVTVSS
VL: DIQMTQSPSSLSASVGDRVTITCRASQSISSYLNWYQQKPGKAPKLLIFAASNLQSGVPSRFSGSRSGTDFTLTISSLQPEDFATYYCQQNYNIPYTFGQGTKLEIKR
notes: fully human anti-IL2Rgamma mAb, human IgG4 Fc; also called REGN7257
B2: H4H12874P (antibody, human IgG4 S228P, kappa, V domains shown)
VH: QVQLVESGGGVVQPGRSLRLSCAASGFNFRNFGMHWVRQAPGKGLEWVAGILYDGSSKYYADSVKDRFTISRDNSKNTLFLQMNSLRAEDTAMYYCAKEEDTAMVPFDSWGPGTLVTVSS
VL: DIQLTQSPSFLSASVGDRVTITCWASQGISSYLAWYQQKPGKAPTLLIYAASTLQSGVPSRFSGSGSGTEFTLTISSLQPEDFASYYCQQLKSYPLTFGGGTKVEIKR
notes: fully human anti-IL2Rgamma mAb, human IgG4 Fc
B3: H4H12863P (antibody, human IgG4 S228P, kappa, V domains shown)
VH: QVQLVESGGGVVQPGRSLRLSCTASGFTFRSYDMYWVRQAPGKGLEWVSVITYDGNNKYYADSVKGRFTISRDNSKNTLFLQMSSLRPEDTAVYYCAKRGLIWVGESFDYWGQGTLVTVSS
VL: DIQMTQSPSTLSASVGDRVTITCRASQSINSWLAWYQQKPGKAPNLLIYKASSLESGVPSRFSGSGSGTEFTLTISSLQPDDFATYYCQQYKSYSWTFGQGTKVEIKR
notes: as for B2
B4: H4H12922P2 (antibody, human IgG4 S228P, kappa, V domains shown)
VH: QVQLVESGGGVVKPGGSLRLSCAASGFTFSNSGIHWVRQAPGKGLEWVALISYAGSNKYYADSVKGRFTISRDNSKNTLSLQMNSLRAEDTAVYYCAKEVWTGTYDSFDMWGRGTMVTVSS
VL: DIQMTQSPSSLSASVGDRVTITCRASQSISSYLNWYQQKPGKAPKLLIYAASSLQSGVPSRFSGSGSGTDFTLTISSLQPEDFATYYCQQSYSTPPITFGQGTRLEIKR
notes: fully human anti-IL2Rgamma mAb, human IgG4 Fc; also called REGN7256

In one experiment the target is T1, Human IL2Rγ extracellular domain expressed with a C-terminal mouse IgG2a Fc tag (human).
T1 construct: whole entry is the Fc-fused construct; also called hIL-2Rg-mFc
T1 chain: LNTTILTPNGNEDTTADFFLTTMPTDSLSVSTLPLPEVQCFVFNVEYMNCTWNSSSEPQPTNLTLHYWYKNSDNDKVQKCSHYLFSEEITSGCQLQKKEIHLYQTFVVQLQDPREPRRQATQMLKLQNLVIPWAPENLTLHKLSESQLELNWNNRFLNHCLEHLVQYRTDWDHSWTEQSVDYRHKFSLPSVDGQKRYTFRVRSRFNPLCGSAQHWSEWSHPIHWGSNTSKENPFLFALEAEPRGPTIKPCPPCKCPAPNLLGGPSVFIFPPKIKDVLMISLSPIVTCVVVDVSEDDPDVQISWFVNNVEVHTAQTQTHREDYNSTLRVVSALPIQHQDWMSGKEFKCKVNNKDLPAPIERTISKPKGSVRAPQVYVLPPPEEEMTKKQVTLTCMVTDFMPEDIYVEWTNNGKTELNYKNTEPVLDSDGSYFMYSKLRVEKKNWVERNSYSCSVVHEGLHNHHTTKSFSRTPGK
In words: SPR Biacore 4000, anti-hFc-captured mAb, 25 C. In short, it runs like this: (§1)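 KD and dissociative half-life come from rate constants obtained by 1:1 binding-model fits of real-time sensorgrams. Antibodies sit on an anti-human Fc capture surface, with HBS-ET (pH 7.4) as running buffer and an 8-10 minute dissociation phase.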
For B1, the “50 nM Ag Bound” value worked out at 69 RU, the Kd was 0.0447 nM, the dissociation rate constant (koff) amounted to 1.55e-05 s⁻¹ and the kon came to 347000 M⁻¹ s⁻¹. For the same molecule, the t1/2 is 746 min.
Take B2: the “50 nM Ag Bound” value was 15 RU, the Kd was determined as 4.18 nM, the koff was 8.35e-05 s⁻¹ and the kon worked out at 20000 M⁻¹ s⁻¹. The same molecule registered a t1/2 of 138 min.
The corresponding values for B3 are 115 RU, 0.0853 nM, 3.41e-05 s⁻¹, 399000 M⁻¹ s⁻¹ and 339 min.
As for B4, the “50 nM Ag Bound” value stood at 82 RU, the Kd turned out to be 0.0564 nM, the koff is 1.75e-05 s⁻¹ and the association rate constant (kon) stood at 310000 M⁻¹ s⁻¹. Moreover, the t1/2 turned out to be 661 min.

The next experiment concerns the target T2, Mouse IL2Rγ extracellular domain expressed with a C-terminal myc-myc-hexahistidine tag (mouse).
T2 construct: whole entry is the tagged construct; also called mIL-2Rg-MMH
T2 chain: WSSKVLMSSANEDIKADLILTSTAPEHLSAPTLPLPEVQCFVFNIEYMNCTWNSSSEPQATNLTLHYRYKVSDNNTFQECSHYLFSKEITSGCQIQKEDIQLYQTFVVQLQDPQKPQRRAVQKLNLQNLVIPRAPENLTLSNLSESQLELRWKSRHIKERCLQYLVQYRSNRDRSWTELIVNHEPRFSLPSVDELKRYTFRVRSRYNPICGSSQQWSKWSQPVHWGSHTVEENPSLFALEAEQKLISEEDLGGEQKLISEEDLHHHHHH
In words: SPR Biacore 4000, anti-hFc-captured mAb, 25 C. An outline of the steps:
as §1
On to B1, for which the “100 nM Ag Bound” value was determined as 1 RU and the binding result was “no binding (tested: 100 nM)”.
As to B2, the “100 nM Ag Bound” value is 1 RU and the binding result is given as “no binding (tested: 100 nM)”.
The corresponding values for B3 are 2 RU and “no binding (tested: 100 nM)”.
The corresponding values for B4 are 2 RU and “no binding (tested: 100 nM)”.

The target in another experiment is T3, Rat IL2Rγ extracellular domain expressed with a C-terminal myc-myc-hexahistidine tag (rat).
T3 construct: whole entry is the tagged construct; also called rIL-2Rg-MMH; rat IL-2Rg-MMH
T3 chain: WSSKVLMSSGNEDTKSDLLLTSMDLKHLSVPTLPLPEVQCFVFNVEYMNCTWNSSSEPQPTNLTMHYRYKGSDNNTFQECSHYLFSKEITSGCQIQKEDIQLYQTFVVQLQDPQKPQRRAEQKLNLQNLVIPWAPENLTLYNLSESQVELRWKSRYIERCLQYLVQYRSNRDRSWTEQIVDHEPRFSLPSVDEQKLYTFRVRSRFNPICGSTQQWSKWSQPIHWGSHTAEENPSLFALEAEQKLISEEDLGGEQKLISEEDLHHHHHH
In words: SPR Biacore 4000, anti-hFc-captured mAb, 25 C. An outline of the steps:
as §1
With B1, the “100 nM Ag Bound” value is 1 RU and the binding result is recorded as “no binding (tested: 100 nM)”.
The corresponding values for B2 are 1 RU and “no binding (tested: 100 nM)”.
On the same counts, the results for B3 are 1 RU and “no binding (tested: 100 nM)”.
On the same counts, the results for B4 are 3 RU and “no binding (tested: 100 nM)”.

The target of another experiment is T4, Macaca fascicularis IL2Rγ extracellular domain expressed with a C-terminal myc-myc-hexahistidine tag (Macaca fascicularis).
T4 construct: whole entry is the tagged construct; also called mfIL-2Rg-MMH
T4 chain: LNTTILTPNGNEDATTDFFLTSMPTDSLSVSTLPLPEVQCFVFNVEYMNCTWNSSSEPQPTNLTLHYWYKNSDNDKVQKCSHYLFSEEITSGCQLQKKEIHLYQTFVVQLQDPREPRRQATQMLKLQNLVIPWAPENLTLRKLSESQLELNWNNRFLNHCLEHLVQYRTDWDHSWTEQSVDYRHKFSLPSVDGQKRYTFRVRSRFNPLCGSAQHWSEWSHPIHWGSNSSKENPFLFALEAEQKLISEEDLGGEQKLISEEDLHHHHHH
In words: SPR Biacore 4000, anti-hFc-captured mAb, 37 C. An outline of the steps: as §1
B1: the “100 nM Ag Bound” value was determined as 29 RU, the Kd was determined as 4.63 nM, the off-rate constant (koff) came out at 0.00171 s⁻¹ and the kon worked out at 369000 M⁻¹ s⁻¹. For the same molecule, the t1/2 is 7 min.
The corresponding values for B2 are 43 RU, 12.4 nM, 0.00116 s⁻¹, 93300 M⁻¹ s⁻¹ and 10 min.
For the molecule B3, the “100 nM Ag Bound” value came out at 63 RU, the Kd was determined as 5.51 nM, the koff was determined as 0.00147 s⁻¹ and the on-rate (kon) came out at 266000 M⁻¹ s⁻¹. The molecule further displayed a t1/2 of 8 min.
On the same counts, the results for B4 are 44 RU, 4.18 nM, 0.00129 s⁻¹, 308000 M⁻¹ s⁻¹ and 9 min.

Another experiment has as its target T1, Human IL2Rγ extracellular domain …. In words: SPR Biacore 4000, anti-hFc-captured mAb, 37 C. In short, it runs like this: as §1
Take B1: the “50 nM Ag Bound” value came out at 39 RU and the on-rate (kon) worked out at 238000 M⁻¹ s⁻¹.
On the same counts, the results for B2 are 14 RU and 33000 M⁻¹ s⁻¹.
On the same counts, the results for B3 are 93 RU and 537000 M⁻¹ s⁻¹.
The corresponding values for B4 are 47 RU and 223000 M⁻¹ s⁻¹.

For a further experiment, the target named is T2, Mouse IL2Rγ extracellular domain …. In words: SPR Biacore 4000, anti-hFc-captured mAb, 37 C. In short, it runs like this: as §1
As for B1, the “100 nM Ag Bound” value is 0 RU.
On the same count and under the same terms, to B2 belongs 0 RU; to B3, 0 RU.
As for B4, the “100 nM Ag Bound” value is 2 RU.

Another experiment deals with T3, Rat IL2Rγ extracellular domain …. In words: SPR Biacore 4000, anti-hFc-captured mAb, 37 C. An outline of the steps: as §1
On to B1, for which the “100 nM Ag Bound” value came to 2 RU.
As for B2, the “100 nM Ag Bound” value amounted to 3 RU.
On the same count and under the same terms, the figure for B3 is 0 RU; for B4 it is 5 RU.

Another experiment has as its target T1, Human IL2Rγ extracellular domain …. In words: SPR Biacore 4000, anti-hFc-captured mAb, 37 C; computed with kd fixed at 1.00E-05. Here is the method: Equilibrium dissociation constants (KD values) for IL-2Rγ binding to purified anti-IL2Rγ monoclonal antibodies were determined using a Biacore 4000 instrument equipped with a real-time surface plasmon resonance biosensor. All binding studies were performed in 10 mM HEPES, 150 mM NaCl, 3 mM EDTA, and 0.05% v/v Surfactant Tween-20, pH 7.4 (HBS-ET) running buffer at 25° C. and 37° C. The Biacore sensor surface was first derivatized by amine coupling with a monoclonal mouse anti-human Fc antibody (GE, # BR-1008-39) to capture anti-IL2Rγ monoclonal antibodies.
The dissociation of monoclonal antibody bound IL2Rγ reagents were monitored for 8-10 minutes in HBS-ET running buffer. Kinetic association (kₐ) and dissociation (kd) rate constants were determined by fitting the real-time sensorgrams to a 1:1 binding model using Scrubber 2.0c curve fitting software. Binding dissociation equilibrium constants (KD) and dissociative half-lives (t_{1/2}) were calculated from the kinetic rate constants as: […]
Molecule B1 registered a Kd of at most 0.042 nM and a t1/2 of at least 1160 min.
On the same counts, the results for B2 are at most 0.303 nM and at least 1160 min.
The corresponding values for B3 are at most 0.0186 nM and at least 1160 min.
In turn, B4 yielded a Kd of at most 0.0448 nM and a t1/2 of at least 1160 min.

The target is the same in the next experiment. In words: SPR Biacore 4000, anti-hFc-captured mAb, 37 C; no dissociation observed, kd manually fixed at 1.00E-05.
B1 came in with a koff of at most 1e-05 s⁻¹.
As to B2, the koff is at most 1e-05 s⁻¹.
For B3, the koff was at most 1e-05 s⁻¹.
On the same count and under the same terms, to B4 belongs at most 1e-05 s⁻¹.
